In one data set the target is GST-BowlZF (UniProt Q9VQU9 220-382). Description: EMSA; EMSA, 6% native polyacrylamide, 32P probes; buffers as in cited refs 22 (Bowl) and 26 (HD), not stated here. As to conditions: protein: recombinant, tags: GST (N-term, pGex4T). A general note: A gel shift assay detects complexes by their altered migration in electrophoresis.
For data set [1], the target named is T1, GST-C15HD (Drosophila melanogaster, UniProt Q4V729 192-292). Description: EMSA; up to three complexes; EMSA, 6% native polyacrylamide, 32P probes; buffers as in cited refs 22 (Bowl) and 26 (HD), not stated here. As to conditions: protein: recombinant; tags: GST (N-term, pGex4T); label: 32P (Klenow dCTP).
For data set [2], the target named is T1, GST-C15HD. Description: EMSA; equivalent to CR1; EMSA, 6% native polyacrylamide, 32P probes; buffers as in cited refs 22 (Bowl) and 26 (HD), not stated here. As to conditions: protein: recombinant; tags: GST (N-term, pGex4T); label: 32P (Klenow dCTP).
A further data set deals with GST-DllHD (UniProt P20009 120-188). The data set can be described thus: EMSA; strictly monomeric; abolished by increasing GST-C15HD; EMSA, 6% native polyacrylamide, 32P probes; buffers as in cited refs 22 (Bowl) and 26 (HD), not stated here. As to conditions: protein: recombinant; tags: GST (N-term, pGex4T); label: 32P (Klenow dCTP).
Data set [3] has as its target T1, GST-C15HD. The data set can be described thus: EMSA; monomeric and some dimeric complexes; displaces DllHD dose-dependently; EMSA, 6% native polyacrylamide, 32P probes; buffers as in cited refs 22 (Bowl) and 26 (HD), not stated here. The settings on record: protein: recombinant; tags: GST (N-term, pGex4T); label: 32P (Klenow dCTP).
Data set [4] concerns the target T1, GST-C15HD. Description: EMSA; EMSA, 6% native polyacrylamide, 32P probes; buffers as in cited refs 22 (Bowl) and 26 (HD), not stated here. As to conditions: protein: recombinant; tags: GST (N-term, pGex4T); label: 32P (Klenow dCTP).

Changes are numbered by the printed parent chain.

T1 sequence (Q4V729 entry or part of it): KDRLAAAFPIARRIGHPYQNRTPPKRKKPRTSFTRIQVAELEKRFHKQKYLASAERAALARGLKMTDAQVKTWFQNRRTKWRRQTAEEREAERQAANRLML
Sequence of GST-BowlZF (Q9VQU9 220-382): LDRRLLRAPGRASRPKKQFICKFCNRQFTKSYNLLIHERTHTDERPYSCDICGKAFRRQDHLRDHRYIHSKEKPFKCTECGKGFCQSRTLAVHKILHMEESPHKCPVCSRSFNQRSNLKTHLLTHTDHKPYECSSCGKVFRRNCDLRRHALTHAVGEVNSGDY
Sequence of GST-DllHD (P20009 120-188): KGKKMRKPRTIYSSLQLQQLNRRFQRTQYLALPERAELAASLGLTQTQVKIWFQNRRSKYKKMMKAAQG

B1: 1Lm (dsDNA)
DNA 1: TACAATTTAAGCCGTAAAGC
DNA 2: GCTTTACGGCTTAAATTGTA
Consider B1, for which the binding result with GST-BowlZF (label: 32P (Klenow dCTP)) is on record as “no binding”.

B2: 2Sm (dsDNA)
DNA 1: AAATTTTAGTCCCAG
DNA 2: CTGGGACTAAAATTT
For the molecule B2, the binding result in the data set with GST-BowlZF (label: 32P (Klenow dCTP)) was “no binding”.

B3: 1L+ (CR2 large) (dsDNA)
DNA 1: TACAACAGAAGCCGTCTGGC
DNA 2: GCCAGACGGCTTCTGTTGTA
Turning to B3, the binding result with GST-BowlZF (label: 32P (Klenow dCTP)) was “binds”.

B4: 1Sm (dsDNA)
DNA 1: TACAATTTAAGCCGTC
DNA 2: GACGGCTTAAATTGTA
On to B4, for which, in the data set with GST-BowlZF (label: 32P (Klenow dCTP)), the binding result is given as “no binding”.

B5: CR1 (dsDNA)
DNA 1: TTAAGCTGCAAATCGCGGCAATCGTTAAGATCACGAAAAACAATTCAAAATTAATGGTAATAAGCAGTT
DNA 2: AACTGCTTATTACCATTAATTTTGAATTGTTTTTCGTGATCTTAACGATTGCCGCGATTTGCAGCTTAA
With B5, the binding result with GST-C15HD [1] is recorded as “binds”.

B6: CR1DBSm (dsDNA)
DNA 1: B5 DNA 1 with A50C, T51C, T52C, A53C, T58C, A59C, A60C, T61C
DNA 2: B5 DNA 2 with A9G, T10G, T11G, A12G, T17G, A18G, A19G, T20G
B6: in the data set with GST-C15HD [2], the binding result is on record as “binds”.

B7: CR1 3' half (dsDNA)
DNA 1: CACGAAAAACAATTCAAAATTAATGGTAATAAGCAGTT
DNA 2: AACTGCTTATTACCATTAATTTTGAATTGTTTTTCGTG
B7: the binding result with GST-DllHD and with GST-C15HD [3] was “binds” in each case.

B8: CR1S3+4+6m (dsDNA)
DNA 1: TTAAGCTGCAAATCGCGGCGGGCGCCCCGATCACGCCGGGCGGTTCGGGATTAATGGTAATAAGCAGTT
DNA 2: AACTGCTTATTACCATTAATCCCGAACCGCCCGGCGTGATCGGGGCGCCCGCCGCGATTTGCAGCTTAA
In the case of B8, the binding result with GST-C15HD [4] is “no binding”.

B9: DBS (Dll-binding sequence) (dsDNA)
DNA 1: TCAAAATTAATGGTAATAAGCA
DNA 2: TGCTTATTACCATTAATTTTGA
On to B9, for which the binding result with GST-C15HD [4] is “no binding”.

B10: OddZF BS (dsDNA)
DNA 1: GCATACAGTAGCACTGATAT
DNA 2: ATATCAGTGCTACTGTATGC
For the molecule B10, in the data set with GST-BowlZF (label: 32P 5' end (Klenow, one dCTP)), the binding result is reported as “binds”.
